According to US20240033331A1, “REDUCING IMMUNOGENICITY TO PEGLOTICASE” (Horizon Therapeutics USA, Inc., priority 2019, published 2024):
Like-named read-outs stand apart in the source and are kept apart here.

Columns and labels:
[1] = system: hyperuricemic patients (SUA >8 mg/dL) with symptomatic gout; details: cited from earlier work; for incidence of infusion-related reactions: pegloticase 8 mg
patients = details: bi-weekly or every 4 weeks for up to 30 months; 149 patients; cited from earlier work
[2] = system: patients treated with pegloticase; details: cited from earlier work
[3] = diluted in infusion bags, cited from earlier work
[4] = system: subjects with refractory gout; details: doses of 4 to 12 mg; from 11.1±0.6 mg/dL before; cited from earlier work
[5] = KXX exposure (AUC) by patient weight and age; assay type: in vivo, human
Excerpt: In some embodiments, heavier and/or younger patients may have a higher incidence of anti-KXX antibodies, or may have higher anti-KXX drug titers, than lighter and/or older patients. In other embodiments, lighter and/or older patients may have higher drug loading of KXX than heavier and/or younger patients. In some embodiments, lighter patients may have higher exposures of KXX than heavier patients. For example, in some embodiments, lighter patients may have greater than 2-fold exposure to KXX than heavier patients. In some embodiments, lower drug levels in a patient may result in anti-KXX antibodies. […] In other embodiments, older patients may have higher exposures of KXX than younger patients. For example, in some embodiments, older patients may have greater than 2-fold exposure to KXX than younger patients. […] Thus, in some embodiments, additional 8-mg doses of KXX may be beneficial for younger and/or heavier patients. In other embodiments, younger and/or heavier patients may benefit from one or more loading doses of 16 mg of KXX.

[6] = system: patients receiving pegloticase; details: cited from earlier work; for patients maintaining a response to pegloticase: another study
rats = details: cited from earlier work
[7] = human, in vivo; cited from earlier work
serum proteins = details: cited from earlier work
rabbits = details: cited from earlier work
[8] = system: patients treated with allopurinol; details: cited from earlier work
lupus nephritis patients = details: in vivo; cited from earlier work

pegloticase
patients with IRs in whom loss of response (return to SUA >6 mg/dL) preceded the first IR ([1]; 20/21 patients): 95%
incidence of infusion-related reactions ([1]; biweekly dosing): 26%
incidence of infusion-related reactions ([1]; every-4-week dosing regimen): 40%
long-term safety (patients): No new safety signals were observed
other uncommon symptoms, share of patients ([2]; ecchymoses, sore throat, constipation, chest pain, vomiting): at least 5%
most common adverse reactions, share of treated patients ([2]; gout flares, infusion reactions, nausea, contusion or ecchymosis, nasopharyngitis, constipation, chest pain, anaphylaxis, vomiting): ≥ 5%
anaphylaxis, frequency ([2]; human, in vivo): 6.5%
infusion reactions, share of patients ([2]; pegloticase 8 mg every 2 weeks): 26%
time stable after dilution ([3]; 2° C. to 8° C.): 4 h
time stable after dilution ([3]; room temperature (20° C. to 25° C.)): 4 h
pUAc after dosing, mean±SD [4]: 1.0±0.5 mg/dL
mean area under the curve (AUC) ([5]; heavier patients): about 4.04 mg/L
exposure, lighter versus heavier patients ([5]; human, in vivo): greater than 2 fold
exposure, older versus younger patients ([5]; human, in vivo): greater than 2 fold
mean area under the curve (AUC) ([5]; lighter patients): about 8.92 mg/L
mean area AUC ([5]; older patients): about 8.86 mg/L
mean area AUC ([5]; younger patients): about 3.93 mg/L
patients with titers exceeding 1:2430 who developed IRs ([6]; 31 of 52 patients): 60%
patients maintaining a response to pegloticase ([6]; antibody titer exceeding 1:2430 at any time, 7 of 65): 10.8%
patients maintaining a response to pegloticase ([6]; never had an antibody titer above 1:2430, 58/65): 89.2%
patients who developed high titer anti-pegloticase antibodies and subsequently lost response ([6]; one study, 69 of 169 patients): 41%

COc1c(C)c2c(c(O)c1C/C=C(\C)CCC(=O)OCCN1CCOCC1)C(=O)OC2 [MMF, 2-morpholinoethyl (E)-6-(1,3-dihydro4-hydroxy-6-methoxy-7-methyl-3-oxo-5-isobenzofuranyl)-4-methyl-4-hexenoate]
teratogenicity (rats): teratogenic effects
time after which not detectable in urine [7]: 8 h
bound to serum proteins (serum proteins): 30%
teratogenicity (rabbits): teratogenic effects

Oc1ncnc2[nH]ncc12 [allopurinol]
patients developing allergic reactions [8]: Approximately 2%
severe hypersensitivity syndrome [8]: about 0.4%

Sc1ncnc2nc[nH]c12 [mercaptopurine, 6-mercaptopurine]
time after which not detectable in urine [7]: 8 h
bound to serum proteins (serum proteins): 30%

rituximab: biologic given with MMF and glucocorticoids in a lupus nephritis trial
rate of serious infections (lupus nephritis patients): 16.6 /100 patient-years
